Laboratory results: patent publication US20220040304A1, “A COMPOSITION FOR CANCER CELL DEATH AND ITS USE” (Industry-University Cooperation Foundation Hanyang …, priority 2018, published 2022)
Entries after “also recorded” stand apart in the source; their conditions may differ.

Columns and labels:
MCF-7 cells [1] = assay: Cell death according to incubation time after various Co-h concentrations (SYTOX Green/DAPI); format: cell-based, human; conditions: MCF-7, protein 10 μM
Procedure: (§1) MCF-7 cells were seeded at 5×10^5 cells/mL in a 96-well plate (SPL Cell Culture Plate, 96 well (SPL, Cat #30096)), and cultured at 37° C. for 24 hours (overnight). After the culture for 24 hours, the cells were washed with FBS & Phenol red-free media (RPMI, Well Gene., Korea, Cat #LM011-02), and 100 μL of an FBS-free medium containing the purified protein (final concentration: 10 μM) was added, followed by reaction at 37° C. for 24 hours.
After the reaction for 24 hours, the cells were washed with FBS & Phenol red-free media (RPMI), and then 100 μL of FBS & Phenol red-free media (RPMI) was added again. The reaction was performed by each concentration of the Co-h substrate solution, and then the cells were incubated at 37° C.
(§2) After incubation, 50 μL of SYTOX Green (final concentration: 261 nM) staining DNA of dead cells and DAPI 10 μL of DAPI staining DNA of live cells were added, followed by reaction for 5 minutes. Cell death was confirmed by detecting KillerRed, SYTOX Green and DAPI fluorescence according to the light irradiation time for cells using a confocal microscope.

MCF-7 cells [2] = assay: Cell death according to incubation time per light irradiation time (SYTOX Green/DAPI); format: cell-based, human; conditions: MCF-7, protein 10 μM
Procedure: as §1
After the reaction for 24 hours, the cells were washed with FBS & Phenol red-free media (RPMI), and then 100 μL of FBS & Phenol red-free media (RPMI) was added again. After light irradiation at 10 mW/cm^2 over time, the cells were incubated at 37° C.
as §2, with “cells and 10 μL” for “cells and DAPI 10 μL”, “of DAPI (Vector Laboratories Inc., USA) staining DNA” for “of DAPI staining DNA”

MCF-7 cells [3] = assay: Cell death according to presence of serum and protein concentration (Co-h); format: cell-based, human; conditions: MCF-7, serum-free media or serum-containing media, 12 hours, Co-h 150 μM
Procedure: MCF-7 cells were seeded at 5×10^5 cells/mL in a 96-well plate (SPL Cell Culture Plate, 96 well (SPL, Cat #30096)), and cultured at 37° C. for 24 hours (overnight). After the culture for 24 hours, the cells were washed with FBS & Phenol red-free media (RPMI), and 100 μL of FBS & Phenol red-free media (RPMI) or FBS media (RPMI) containing a predetermined concentration of purified protein, followed by reaction at 37° C. for 12 hours.
After the reaction for […], the cells were washed with FBS & Phenol red-free media (RPMI), 100 μL of FBS & Phenol red-free media (RPMI) containing a Co-h substrate solution (final concentration: 150 μM) and SYTOX Green (final concentration: 261 nM) staining DNA of dead cells was added, followed by reaction at 37° C. for 30 minutes.
After the reaction, 10 μL of DAPI staining DNA of live cells was added, followed by reaction for 5 minutes. Cell death was confirmed by observing KillerRed, SYTOX Green and DAPI fluorescence using a confocal microscope.

MCF-7 = assay: Cell death after light irradiation by cell type (SYTOX Green/DAPI); format: cell-based, human; conditions: MCF-7, protein 10 μM, light 10 mW/cm^2 for 10 minutes
Procedure: Data on each breast cancer cell line is as follows (Table 4): MCF-7: (Origin: breast, mammary gland, Species: human—person, Growth pattern: monolayer, Media: RPMI1640 with L-glutamine (300 mg/L), 25 mM HEPES and 25 mM NaHCO3, 90%; heat inactivated fetal bovine serum (FBS), 10%), purchased from Korean Cell Line Bank (KCLB).
(§3) The cells were seeded at 5×10^5 cells/mL in 96-well plates (SPL Cell Culture Plate, 96 well (SPL, Cat #30096)), and cultured at 37° C. for 24 hours (overnight). After the culture for 24 hours, the cells were washed with FBS & phenol red-free media, and 100 μL of FBS & phenol red-free media containing a purified protein (final concentration: 10 μM) was added, followed by reaction at 37° C. for 24 hours. After the reaction for 24 hours, the cells were washed with FBS & phenol red-free media, and 100 μL of FBS & phenol red-free media was added.
(§4) After irradiation with light at 10 mW/cm^2 for 10 minutes, 50 μL (final concentration: 261 nM) of SYTOX Green staining DNA of dead cells was added, followed by reaction at 37° C. for 30 minutes. 10 μL of DAPI staining DNA of live cells was added, followed by reaction for 5 minutes. Cell death was confirmed by observing KillerRed, SYTOX Green and DAPI fluorescence using a confocal microscope.

MDA-MB-231 = assay: as above; format: cell-based, human; conditions: MDA-MB-231, protein 10 μM, light 10 mW/cm^2 for 10 minutes
Procedure: MDA-MB-231: (Origin: breast, mammary gland, Species: human—person, Growth pattern: monolayer, Media: DMEM with glucose (4.5 g/L), L-glutamine and sodium pyruvate, 90%; heat inactivated fetal bovine serum (FBS), 10%), purchased from Korean Cell Line Bank (KCLB).
as §3, §4

MDA-MB-231 cancer cells = assay: IVIS in vivo imaging and tumor size in mice with MDA-MB-231 tumors; parameters: species or system mouse; conditions: NOD-SCID mice, MDA-MB-231 tumor, protein injected into tumor (50 μM), Co-h 5 μg/50 μL subcutaneously
Procedure: MDA-MB-231 cancer cells (ATCC) were cultured in RPMI (Corning Inc.) containing 5% FBS (Corning Inc.) and 1% penicillin and streptomycin. Mice used in this experiment were 7-week-old NOD-SCID species, and purchased from Central Lab Animal Inc., and then the mice were raised without diet restriction for 2 weeks for acclimation at this research institute. The weight of a female mouse ranged from 17 to 23 g.
This animal experiment was conducted after approval by the Institute of Animal Care and Use Committee (IACUC) of the Asan Medical Center in compliance with the guidelines. 1×10^6 cells/50 μL of MDA-MB-231 cells diluted in RPMI and 50 μL of Matrigel (Corning Inc.) were subcutaneously injected into the adipose body of a NOD-SCID mouse. On day 9 after cell injection, a protein containing 20 μL of Matrigel (RLuc8.6-KR-LP, final concentration: 50 μM) was injected into a tumor when the tumor size of the mouse was approximately 40 mm^2. After respiratory anesthesia of the mouse, fluorescence emitted from the protein was imaged using an IVIS spectrum (Xenogen Inc.). For BL-PDT, Co-h (5 μg/50 μL, Nanolight Technology.) was diluted in 1×PBS (Corning) and then subcutaneously injected. The light emission from Co-h was imaged after the IVIS spectrum was set to 5 seconds.

B1: RLuc8.6-KR-LP: fusion protein of RLuc8.6, KillerRed and lead peptide WLEAAYQRFL, 71 kDa (protein)
chain: MRGSHHHHHHGMASMTGGQQMGRDLYDDDDKDPMASKVYDPEQRKRMITGPQWWARCKQMNVLDSFINYYDSEKHAENAVIFLHGNATSSYLWRHVVPHIEPVARCIIPDLIGMGKSGKSGNGSYRLLDHYKYLTAWFELLNLPKKIIFVGHDWGSALAFHYAYEHQDRIKAIVHMESVVDVIESWMGWPDIEEELALIKSEEGEKMVLENNFFVETLLPSKIMRKLEPEEFAAYLEPFKEKGEVRRPTLSWPREIPLVKGGKPDVVQIVRNYNAYLRASDDLPKLFIESDPGFFYNAIVEGAKKFPNTEFVKVKGLHFLQEDAPDEMGKYIKSFVERVLKNEQEFGGGMLCCMRRTKQVEKNDEDQKISEGGPALFQSDMTFKIFIDGEVNGQKFTIVADGSSKFPHGDFNVHAVCETGKLPMSWKPICHLIQYGEPFFARYPDGISHFAQECFPEGLSIDRTVRFENDGTMTSHHTYELDDTCVVSRITVNCDGFQPDGPIMRDQLVDILPNETHMFPHGPNAVRQLAFIGFTTADGGLMMGHFDSKMTFNGSRAIEIPGPHFVTIITKQMRDTSDKRDHVCQREVAYAHSVPRITSAIGSDEDGGGWLEAAYQRFL
modifications: pRSET-RLuc8.6-KillerRed-Lead peptide
With B1 the “cell incubation time after which the number of cells stained with SYTOX Green increased” value (MCF-7 cells [1]; 25 μM or 50 μM substrate solution for 5 minutes) was no less than 30 min, the “cell incubation time at which cells stained with SYTOX Green were observed” value (MCF-7 cells [1]; 150 μM substrate solution for 5 minutes) was “approximately 10 minutes” and the “cell incubation time after which the number of cells stained with SYTOX Green increased” value (MCF-7 cells [2]; light 10 mW/cm^2 for 1 minute) was “over 1 hour”. For the same molecule, the “cell incubation time from which the number of cells stained with SYTOX Green increased” value (MCF-7 cells [2]; light 10 mW/cm^2 for 5 minutes or 10 minutes) was “approximately 30 minutes”, the “number of cells stained with SYTOX Green according to protein concentration” value (MCF-7 cells [3]) was “the higher the number of cells stained with SYTOX Green” and the “cell death after light irradiation” value (MCF-7) was “killing the three types of cancer cell lines”. The “cell death after light irradiation” value (MDA-MB-231) was “killing the three types of cancer cell lines” and the tumor size (MDA-MB-231 cancer cells) was “the smallest; also recorded: tumor growth is inhibited”.
